Columns and labels:
[1] = target: human folate receptor 1 (folate receptor alpha, FRα) on T47D cells (human) (UniProt P15328); assay: flow cytometry on T47D cells, FITC anti-human IgG Fcγ detection; control run with M-10
[2] = target: human folate receptor 1 (folate receptor alpha, FRα) on T47D cells (human) (UniProt P15328); assay: flow cytometry on T47D cells, FITC anti-human IgG Fcγ detection; control run with M-166
[3] = target: human folate receptor 1 (folate receptor alpha, FRα) on T47D cells (human) (UniProt P15328); assay: flow cytometry on T47D cells, FITC anti-human IgG Fcγ detection; control run with M-160
[4] = target: human folate receptor 1 (folate receptor alpha, FRα) on T47D cells (human) (UniProt P15328); assay: flow cytometry on T47D cells, FITC anti-human IgG Fcγ detection; control run with M-sSPDB-30
[5] = target: human folate receptor 1 (folate receptor alpha, FRα) on T47D cells (human) (UniProt P15328); assay: flow cytometry on T47D cells, FITC anti-human IgG Fcγ detection; control run with M-sSPDB-109
[6] = target: human folate receptor 1 (folate receptor alpha, FRα) on T47D cells (human) (UniProt P15328); assay: flow cytometry on T47D cells, FITC anti-human IgG Fcγ detection; control run with M-sSPDB-87
[7] = target: human folate receptor 1 (folate receptor alpha, FRα) on T47D cells (human) (UniProt P15328); assay: flow cytometry on T47D cells, FITC anti-human IgG Fcγ detection; control run with M-sSPDB-17
[8] = target: human folate receptor 1 (folate receptor alpha, FRα) on T47D cells (human) (UniProt P15328); assay: flow cytometry on T47D cells, FITC anti-human IgG Fcγ detection; control run with M-sSPDB-127

Chain of human folate receptor 1 (folate receptor alpha, FRα) on T47D cells (human) (P15328 25-234, stated change not applied): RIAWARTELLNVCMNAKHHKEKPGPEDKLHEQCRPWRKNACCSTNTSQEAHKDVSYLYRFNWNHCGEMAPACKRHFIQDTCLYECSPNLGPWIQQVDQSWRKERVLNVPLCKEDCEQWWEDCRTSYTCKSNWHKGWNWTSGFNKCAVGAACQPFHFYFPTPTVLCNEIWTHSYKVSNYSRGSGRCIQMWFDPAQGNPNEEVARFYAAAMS

EC50 [1]: 300 pM | EC50 [2]: 200 pM | EC50 [3]: 200 pM | EC50 [4]: 200 pM | EC50 [5]: 200 pM | EC50 [6]: 200 pM | EC50 [7]: 200 pM | EC50 [8]: 200 pM
B1: huMov19 antibody (unconjugated) (antibody, from a related filing, V domains shown)
VH: QVQLVQSGAEVVKPGASVKISCKASGYTFTGYFMNWVKQSPGQSLEWIGRIHPYDGDTFYNQKFQGKATLTVDKSSNTAHMELLSLTSEDFAVYYCTRYDGSRAMDYWGQGTTVTVSS
VL: DIVLTQSPLSLAVSLGQPAIISCKASQSVSFAGTSLMHWYHQKPGQQPRLLIYRASNLEAGVPDRFSGSGSKTDFTLTISPVEAEDAATYYCQQSREYPYTFGGGTKLEIKR

— patent US20200397914A1
